Target: T1, RB69 DNA polymerase (RB69 pol) (Bacteriophage RB69, UniProt Q38087 1-903, D222A;D327A)
T1 sequence: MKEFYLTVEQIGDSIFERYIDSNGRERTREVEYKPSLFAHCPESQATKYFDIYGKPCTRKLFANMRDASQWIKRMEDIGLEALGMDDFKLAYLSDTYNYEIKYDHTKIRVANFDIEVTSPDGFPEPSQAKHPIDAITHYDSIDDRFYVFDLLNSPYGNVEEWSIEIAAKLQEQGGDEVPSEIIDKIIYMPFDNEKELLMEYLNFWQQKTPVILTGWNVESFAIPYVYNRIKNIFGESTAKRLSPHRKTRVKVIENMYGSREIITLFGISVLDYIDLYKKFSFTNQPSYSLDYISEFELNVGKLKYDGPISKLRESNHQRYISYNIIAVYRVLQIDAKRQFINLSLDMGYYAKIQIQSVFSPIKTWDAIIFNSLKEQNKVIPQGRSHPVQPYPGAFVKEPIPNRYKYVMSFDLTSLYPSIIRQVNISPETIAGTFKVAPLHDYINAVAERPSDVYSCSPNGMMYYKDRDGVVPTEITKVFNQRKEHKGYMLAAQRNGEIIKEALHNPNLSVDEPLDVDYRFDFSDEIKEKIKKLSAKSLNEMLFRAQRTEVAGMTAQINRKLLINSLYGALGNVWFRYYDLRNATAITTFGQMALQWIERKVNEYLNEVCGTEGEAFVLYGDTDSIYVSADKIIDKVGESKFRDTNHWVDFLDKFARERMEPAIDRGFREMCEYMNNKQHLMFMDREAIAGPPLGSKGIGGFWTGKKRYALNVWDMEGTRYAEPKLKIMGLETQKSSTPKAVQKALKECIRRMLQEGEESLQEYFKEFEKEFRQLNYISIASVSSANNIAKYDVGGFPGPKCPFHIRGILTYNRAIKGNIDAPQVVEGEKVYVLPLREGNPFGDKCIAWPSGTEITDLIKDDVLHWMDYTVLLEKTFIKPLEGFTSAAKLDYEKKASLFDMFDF
Assay: X-ray crystallography

B1: P/T cocrystallization duplex (18-mer template/13-mer ddC primer) (dsDNA)
DNA 1: TCAGGTAAGCAGTCCGCG
DNA 2: GCGGACTGCTTAC
modifications: primer 3' terminus dideoxy (ddC)
B1: binds.
